Patent publication US7612163B1, “Prokineticin 2β peptide and its use” (Janssen Pharmaceutica N.V., priority 2004, dated 2009)

How the values were obtained:
PKR1 [1] = target: T1, PKR1 (Homo sapiens, UniProt Q8TCW9); assay: Intracellular Ca2+ mobilization (FLIPR, Fluo-3) in PKR1 expressing HEK 293 cells; assay type: cell-based; design: The full-length cDNA coding regions for both PKR1 and PKR2 were PCR-amplified from human fetal brain cDNA; expressed in transfected cells; (transient, pCIneo)
Procedure: (§1) FIGS. 5A and 5B graphically illustrate that PKs stimulate Ca^2+ mobilization in HEK 293 cells expressing PKR1 or PKR2 at different potencies. HEK 293 cells transiently expressing PKR1 or PKR2 were seeded in 96-well plates, loaded with Ca^2+ dye Fluo-3 and then stimulated with different concentrations of PK1, PK2 or PK2β. The release of Ca^2+ was measured with a fluorescence imaging plate reader (FLIPR). The results are mean values (±S.E.M) of triplicate experiments. […] FIG. 5B provides the results for Ca^2+ mobilization in PKR2 expressing cells (legend: ▪, PK1; ▴, PK2; ▾, PK2β).
(§2) Intracellular Ca^2+ Mobilization Assays. PKR1 and PKR2 in the expression vector pCIneo (Promega) were transfected into HEK293 cells using LipofectAmine (Invitrogen). Two days after transfection, cells were detached using PBS containing 10 mM EDTA and seeded in poly-D-lysine coated 96-well black tissue culture plates (BD Biosciences).

PKR1 [2] = target: T1, PKR1; assay: Radioligand competition binding assay (125I-PK2-f), PKR1 expressing COS-7 cells; design: The full-length cDNA coding regions for both PKR1 and PKR2 were PCR-amplified from human fetal brain cDNA; expressed in transfected cells; host or cells: COS-7 (transient, pCIneo); conditions: FIG. 4A
Procedure: (§3) FIGS. 4A and 4B graphically illustrate that PKs bind the PKR1 and PKR2 with different affinities. COS-7 cells transiently expressing PKR1 or PKR2 were seeded to 96-well plates. ^125I-labeled PK2-f was added to each well at a final concentration of 100 pM. Different concentrations of PK1, PK2 or PK2β were added to the assays as the competitors. All assays were performed in triplicates. The results are mean values (±S.E.M) of triplicates. FIG. 4A provides the results of the binding assay using PKR1 expressing cells.
(§4) Expression, purification, and iodination of C-terminal FLAG-tagged PK2. C-terminal FLAG-tagged PK2 (PK2-f) was constructed as described (Soga et al., 2002). Two primers P9: ATCGAGAATTCGCCACCATGAGGAGCCTGTGCTGCGCCC (SEQ.ID.NO.:11) and P10: GGATCCCTACTTATCGTCGTCATCCTTATAATCCTTTTGGGCTAAACA (SEQ.ID.NO.:12) were used to amplify human whole brain cDNA (Clontech). The PCR-amplified PK2-f was cloned into a mammalian expression vector pCMV-sport1 (Invitrogen). The resulting clones were sequenced to confirm the identities and transfected into COS-7 cells using LipofectAmine (Invitrogen). Three days after transfection, the cell culture supernatant was collected and run through an ANTI-FLAG M2 agarose (Sigma) affinity column. The column was washed with PBS and eluted with […] Glycine HCl, pH 3.0. The eluted protein fraction was immediately neutralized with 1 M Tris-HCl, pH 8.0 and then further purified by reverse-phase HPLC using a C4 column (Vydac). The purified recombinant PK2-f protein was iodinated using Iodogen reagent (Pierce, Rockford, Ill.) and ^125I-NaI (PerkinElmer, Boston, Mass.) as described by Pierce. The iodinated PK2-f was purified by a G-50 (Amersham Pharmacia Biotech) gel filtration column.
(§5) Radio-Ligand Binding Assays. PKR1 and PKR2 in the expression vector pCIneo (Promega) were transfected into COS-7 cells using LipofectAmine (Invitrogen). […] After the plates were washed three times with ice cold PBS, Microscint-40 (Packard, Meriden, Conn.) was added and the plates were counted on a Topcount (Packard).

PKR2 [3] = target: T2, PKR2 (Homo sapiens, UniProt Q8NFJ6); assay: Radioligand competition binding assay (125I-PK2-f), PKR2 expressing COS-7 cells; design: The full-length cDNA coding regions for both PKR1 and PKR2 were PCR-amplified from human fetal brain cDNA; expressed in transfected cells; host or cells: COS-7 (transient, pCIneo); conditions: FIG. 4B
Procedure: as §3, §4, §5

PKR2 [4] = target: T2, PKR2; assay: Intracellular Ca2+ mobilization (FLIPR, Fluo-3) in PKR2 expressing HEK 293 cells; assay type: cell-based; design: The full-length cDNA coding regions for both PKR1 and PKR2 were PCR-amplified from human fetal brain cDNA; expressed in transfected cells; (transient, pCIneo)
Procedure: as §1, §2

PKR2 [5] = target: T2, PKR2; assay: cAMP accumulation (cAMP [125I] FlashPlate) in HEK 293 cells co-expressing PKR2/Gs; assay type: cell-based; design: The full-length cDNA coding regions for both PKR1 and PKR2 were PCR-amplified from human fetal brain cDNA; expressed in transfected cells; host or cells: HEK293 (transient, pCIneo, co-transfected with Gs plasmid); conditions: FIG. 8C
Procedure: FIGS. 8B and 8C illustrate results from HEK 293 cells co-expressing PKR1/Gs (FIG. 8B) or PKR2/Gs (FIG. 8C) stimulated with different PKs at various concentrations (the accumulated cAMP was measured by a cAMP [^125I] FlashPlate Assay kit; the results are mean values (±S.E.M) of triplicate experiments (legend: ▪, PK1; ▴, PK2; ▾, PK2β)).
In a different experiment, PKR1 and PKR2 in the expression vector pCIneo (Promega) were co-transfected with the Gs expression plasmid into HEK293 cells using LipofectAmine (Invitrogen). Two days after transfection, cells were detached with 10 mM EDTA in PBS, resuspended in Dulbecco's Modified Eagle's Medium/F12 (DMEM/F12) media, and then plated on 96-well plates at a density of 50,000 cells per well. Two hours after the seeding, cells culture medium was replaced with DMEM/F12 containing 2 mM isobutylmethylxanthine (Sigma) and incubated for 30 min. Different concentrations of PK1, PK2 or PK2β were added to cells and incubated for an additional 30 min in a final volume of 200 μl/well. The reaction was stopped and cAMP was extracted by adding 20 μl of 0.5 N HCl to each well. Cell culture media were tested for cAMP concentrations by the cAMP [^125I] FlashPlate Assay kit (PerkinElmer) as described by the manufacturer.

T2 sequence (Q8NFJ6 whole entry): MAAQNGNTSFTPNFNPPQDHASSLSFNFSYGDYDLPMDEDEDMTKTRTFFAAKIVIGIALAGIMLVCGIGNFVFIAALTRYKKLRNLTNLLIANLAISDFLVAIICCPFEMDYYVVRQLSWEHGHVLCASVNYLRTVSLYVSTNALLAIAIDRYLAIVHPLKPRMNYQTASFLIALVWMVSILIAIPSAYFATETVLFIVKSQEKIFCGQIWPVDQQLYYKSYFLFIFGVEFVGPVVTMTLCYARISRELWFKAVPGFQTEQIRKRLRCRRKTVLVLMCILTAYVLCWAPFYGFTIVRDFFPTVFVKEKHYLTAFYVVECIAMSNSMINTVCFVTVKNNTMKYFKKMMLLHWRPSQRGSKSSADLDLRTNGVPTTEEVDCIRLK
T1 sequence (Q8TCW9 whole entry): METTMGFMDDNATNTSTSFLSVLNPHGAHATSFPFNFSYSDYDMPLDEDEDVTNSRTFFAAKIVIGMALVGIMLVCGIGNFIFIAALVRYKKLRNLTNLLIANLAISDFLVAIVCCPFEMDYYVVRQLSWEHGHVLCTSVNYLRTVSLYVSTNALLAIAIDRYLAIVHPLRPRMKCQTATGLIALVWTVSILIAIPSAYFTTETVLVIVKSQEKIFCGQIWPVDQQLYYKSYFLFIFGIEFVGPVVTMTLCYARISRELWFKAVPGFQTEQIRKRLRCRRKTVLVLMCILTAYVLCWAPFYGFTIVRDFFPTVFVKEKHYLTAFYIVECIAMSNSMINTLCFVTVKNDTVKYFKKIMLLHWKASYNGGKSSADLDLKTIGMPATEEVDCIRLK

Sequence: AVITGACDKDSQCGGGMCCAVSIWVK SIRICTPMGKLGDSCHPLTRKNNFGNGRQE (AVITGACDKDSQCGGGMCCAVSIWVKSIRICTPMGKLGDSCHPLTRKNNFGNGRQE; listed as Homo sapiens) [PK2β, 56-amino acid mature peptide processed from PK2L pro-peptide by proteolytic (furin) cleavage; recombinant from COS-7 cells]
- Agonist character at PKR1, in words (PKR1 [1]): potent full agonist
- Binding to PKR1, in words (PKR1 [2]): high affinities
- Binding to PKR2, in words (PKR2 [3]): marginal active at high concentrations
- Receptor selectivity in Ca2+ mobilization, in words (PKR2 [4]; PKR1 versus PKR2, FIGS. 5A, 5B): only active at PKR1
- Ca2+ response potency in PKR2-expressing cells, fold less potent than PK1 and PK2 (PKR2 [4]; relative to PK1 and PK2): approximately 50 fold
- cAMP accumulation in PKR2 expressing HEK293 cells, in words (PKR2 [5]): marginal activity at high concentrations
